On the set-up of data set [1]: method as in 4 sources, ref 50, 59 = [50]; PMID 12697897; doi:10.1073/pnas.0931245100; 50. Smith R.A.J. Porteous C.M. Gane A.M. Murphy M.P. Delivery of bioactive molecules to mitochondria in vivo Proc. Natl. Acad. Sci. USA 2003 100 5407 5412 10.1073/pnas.0931245100 12697897 PMC154358 || [59]; PMID 23454352; doi:10.1016/j.bbagen.2013.02.005; 59. Porteous C.M. Menon D.K. Aigbirhio F.I. Smith R.A. Murphy M.P. P-glycoprotein (Mdr1a/1b) and breast cancer resistance protein (Bcrp) decrease the uptake of hydrophobic alkyl triphenylphosphonium c ||| ref 59 = [59]; PMID 23454352; doi:10.1016/j.bbagen.2013.02.005; 59. Porteous C.M. Menon D.K. Aigbirhio F.I. Smith R.A. Murphy M.P. P-glycoprotein (Mdr1a/1b) and breast cancer resistance protein (Bcrp) decrease the uptake of hydrophobic alkyl triphenylphosphonium c ||| ref 50 = [50]; PMID 12697897; doi:10.1073/pnas.0931245100; 50. Smith R.A.J. Porteous C.M. Gane A.M. Murphy M.P. Delivery of bioactive molecules to mitochondria in vivo Proc. Natl. Acad. Sci. USA 2003 100 5407 5412 10.1073/pnas.0931245100 12697897 PMC154358 ||| ref 60 = [60]; PMID 31751762; doi:10.1016/j.freeradbiomed.2019.11.021; 60. Pinho B.R. Duarte A.I. Canas P.M. Moreira P.I. Murphy M.P. Oliveira J.M.A. The interplay between redox signalling and proteostasis in neurodegeneration: In vivo effects of a mitochondria-targeted. The note with it: cited from earlier work. The text has this:
TPP-driven mitochondriotropic compounds are not necessarily excluded from the brain [47, 48, 49, 50]. The literature contains several reports of the use of mitochondria-targeted probes to report on cerebral processes or of mitochondria-tar ...

Data set [2] is described as follows: Tissue distribution of An2-PAPTP and metabolites (liver, spleen, kidneys, heart) after i.v. injection. Type of data set: in vivo, mouse. Particulars: for metabolite in liver, 15 min: n = 5; for metabolite in heart, 15 min / metabolite in spleen, 15 min: N = 5; for metabolite in kidneys, 15 min, single animal: found in one animal out of five; for metabolite in liver, 30 min: n = 4; for metabolite in liver, 60 min: n = 6. From the text: The total amount of An2-PAPTP and its metabolites, summarized in Table 3, is comprehensive of all the species having the characteristic psoralenic UV spectrum obtained by the overall extraction procedure (i.e., from organic solvent extraction and basic hydrolysis of the remaining pellet), and represents and underestimation of the real concentration in the tissue (see Section 4.7.3). This is because no recovery yield correction was applied, since it was impossible to identify most of the species extracted, and because PAPTPL extracted after high-pH hydrolysis of the pellet could come either from An2-PAPTP or from metabolites. For quantification in HPLC analysis, all the psoralenic species were assumed to have the same molar extinction coefficient as PAPTPL, an assumption justified by the near-identity observed for all the available psoralen-containing molecules.
The liver, spleen, kidneys, heart obtained from untreated mice were weighed and homogenized with PBS pH 7.4 (1 vol) with a potter. The pre-established amount of PAPTPL was added into tissue homogenates or blood and, after thorough vortexing, 5 vol of acetone were added and the sample was sonicated for 2 min. Subsequently, 5 vol of ACN containing 0.1% TFA were added and the sample was sonicated for 5 min. The sample was then centrifuged at 12,000× g for 7 min at 4 °C and the supernatant was collected, concentrated with a Hetovac VR-1, and analyzed via HPLC-UV.
Brain and liver obtained from untreated mice were weighed and homogenized with PBS pH 7.4 (1 vol) with a potter. The pre-established amount of analyte was added into tissue homogenates and, after thorough vortexing, 5 vol of acetone were added and the sample was sonicated for 2 min. Subsequently, 5 vol of ACN containing 0.1% trifluoracetic acid (TFA) were added and the sample was sonicated for 5 min. The sample was then centrifuged at 12,000× g for 7 min at 4 °C and the supernatant was collected, concentrated with a Hetovac VR-1, and analyzed via HPLC-UV.
To quantify the amount of An2-PAPTP stuck in the tissue, the pellet remaining after the procedure described above was incubated with intermittent Vortexing at 60 °C for 3 h with PBS pH 12.5/ACN 1:1 and then centrifuged at 12,000× g for 7 min. HPLC-UV analysis of the supernatant, measuring PAPTPL hydrolyzed from the tissue, thus indirectly reflects the amount of An2-PAPTPL in the pellet (Scheme 3). Quantification was as described for PAPTPL.
A stock solution of the peptide-PAPTP conjugates was prepared in DMSO. TAT-PAPTP was administered at 8 and 5 μmol/kg bw and An2-PAPTP only at 5 μmol/kg bw. The calculated quantity of drugs was diluted from the stock solution in saline or mouse plasma to a final volume of 200 μL.

The nature of data set [3]: fresh mouse blood, withdrawn from the jugular vein and heparinized. The note with it: C57BL mice, 37 °C, up to 4 h.
Where [4] appears, read: after An2-PAPTP 5 µmoles/kg bw i.v., mean ± SEM.
Setting [5] is: after An2-PAPTP 5 µmoles/kg bw i.v., liver, mean ± SEM.
Setting [6] is: after An2-PAPTP i.v., mean ± SEM.
[7] abbreviates: after An2-PAPTP i.v., kidneys, found in one animal out of four.
[8] abbreviates: after An2-PAPTP 5 µmoles/kg bw i.v., liver, 30 min, mean ± SEM.
The mark [9] stands for this setting: after An2-PAPTP i.v., mean ± SEM, N = 4.
Setting [10] is: after An2-PAPTP i.v., mean ± SEM, N = 6.

Several values for one entry are separate records, joined by “and”; a condition that tells them apart may be missing. Identical values can stand only once.

The text below walks through data of paper PMC7914648 (Pharmaceuticals, 2021).

Regarding `COC1=C(OC)C(=O)C(CCCCCCCCCC[P+](c2ccccc2)(c2ccccc2)c2ccccc2)=C(C)C1=O` [MitoQ], in data set [1] (500 µM MitoQ in drinking water for 6 weeks, R6/2 mice), the “amount in the brain, R6/2 mice” value is reported as roughly 5 pmol/g. Further, the “amount in the brain, WT mice” value in data set [1] (500 µM MitoQ in drinking water for 6 weeks, WT mice) was “about 1 pmol/g”. For the same compound, the “steady-state brain radioactivity levels” value in data set [1] (10-day administration of 500 µM in drinking water) is given as roughly 0.15 nmol/gr fresh tissue. In data set [1] (i.v. injection of 100 nmol radiolabelled compound in (WT) mice, scintillation counting), the “initial peak concentration in brain tissue” value is given as “about 0.05 nmol/gr”. Besides, the “Area Under Curve in brain” value in data set [1] (i.v., wild-type mice) was 0.6 nmol·h/g wet weight.

In the case of `CCC(C)C(NC(=O)Oc1ccc(CCCOc2ccc([P+](CCCc3ccc(OCCCCOc4c5ccoc5cc5oc(=O)ccc45)cc3)(c3ccccc3)c3ccccc3)cc2)cc1)C(=O)O.O=C([O-])C(F)(F)F` (stereo not drawn) [PAPTPL-I, (4-(3-(4-(((1-carboxy-2-methylbutyl)carbamoyl)oxy)phenyl)propoxy)phenyl) (3-(4-(4-((7-oxo-7H-furo[3,2-g]chromen-4-yl)oxy)butoxy)phenyl)propyl)diphenylphosphonium 2,2,2-trifluoroacetate], the “metabolite in liver, 15 min” value was determined as 0.5 ± 0.3 nmol/g fresh tissue in data set [2] (after An2-PAPTP 5 µmoles/kg bw i.v. in mouse plasma, liver, HPLC-UV, mean ± SEM) and 0.4 ± 0.2 % administered dose in data set [2] (setting [5]). In addition, the “metabolite in heart, 15 min” value in data set [2] (setting [4]) is 0 nmol/g fresh tissue; in data set [2] (setting [6]) it was 0 % administered dose. Further, the “metabolite in spleen, 15 min” value in data set [2] (setting [4]) was 0.7 ± 0.3 nmol/g fresh tissue; in data set [2] (setting [6]), 0.04 ± 0.02 % administered dose. In data set [2] (after An2-PAPTP i.v., kidneys), the “metabolite in kidneys, 15 min, single animal” value (from here on “metabolite in kidneys, 15 min”) is 0.32 nmol/g fresh tissue and 0.02 % administered dose. In data set [2] (setting [7]), the “metabolite in kidneys, 30 min, single animal” value was 0.32 nmol/g fresh tissue and 0.03 % administered dose. For the same compound, the “metabolite in liver, 30 min, single animal” value in data set [2] (after An2-PAPTP i.v., liver, 30 min, found in one animal out of four) was 0.2 nmol/g fresh tissue and 0.03 % administered dose.

Consider `CC[C@H](C)[C@H](NC(=O)Oc1ccc(CCCOc2ccc([P+](CCCc3ccc(OCCCCOc4c5ccoc5cc5oc(=O)ccc45)cc3)(c3ccccc3)c3ccccc3)cc2)cc1)C(=O)N[C@H](C(=O)O)[C@@H](C)O` [PAPTPL-IT, PAPTPL-isoleucine- threonine], for which the “metabolite in heart, 15 min” value in data set [2] (setting [4]) stood at 0 nmol/g fresh tissue. In data set [2] (setting [5]), the “metabolite in liver, 15 min” value stood at 2.8 ± 1.0 % administered dose and the “metabolite in liver, 60 min” value is on record as 6.2 ± 1.6 % administered dose. The “metabolite in liver, 30 min” value in data set [2] (setting [8]) amounted to 2.7 ± 1.8 % administered dose. Further, in data set [2] (setting [9]), the “metabolite in heart, 30 min” value stood at 0.01 ± 0.01 % administered dose and the “metabolite in spleen, 30 min” value turned out to be 0.07 ± 0.04 % administered dose. Besides, in data set [2] (setting [6]), the “metabolite in heart, 15 min” value turned out to be 0 % administered dose and the “metabolite in spleen, 15 min” value is on record as 0.10 ± 0.04 % administered dose. Besides, in data set [2] (after An2-PAPTP i.v., kidneys), the “metabolite in kidneys, 15 min” value was 0.04 % administered dose. Besides, the “metabolite in kidneys, 30 min, single animal” value in data set [2] (setting [7]) was 0.05 % administered dose. The “metabolite in kidneys, 60 min, single animal” value in data set [2] (after An2-PAPTP i.v., kidneys, found in one animal out of six) came out at 0.006 % administered dose. Further, in data set [2] (setting [10]), the “metabolite in spleen, 60 min” value was determined as 0.07 ± 0.03 % administered dose.

Regarding `CC[C@H](C)[C@H](NC(=O)Oc1ccc(CCCOc2ccc([P+](CCCc3ccc(OCCCCOc4c5ccoc5cc5oc(=O)ccc45)cc3)(c3ccccc3)c3ccccc3)cc2)cc1)C(=O)N[C@H](C(=O)N[C@@H](Cc1ccccc1)C(=O)O)[C@@H](C)O` [PAPTPL-ITF, PAPTPL-isoleucine-threonine-phenylalanine], the “metabolite in heart, 15 min” value in data set [2] (setting [4]) is listed as 0 nmol/g fresh tissue. In addition, in data set [2] (setting [5]), the “metabolite in liver, 15 min” value is 1.7 ± 1.0 % administered dose and the “metabolite in liver, 60 min” value is given as 3.9 ± 1.0 % administered dose. Also, the “metabolite in liver, 30 min” value in data set [2] (setting [8]) was 1.2 ± 0.5 % administered dose. In addition, in data set [2] (setting [9]), the “metabolite in heart, 30 min” value was found to be 0.008 ± 0.007 % administered dose and the “metabolite in spleen, 30 min” value turned out to be 0.02 ± 0.01 % administered dose. In addition, in data set [2] (setting [6]), the “metabolite in heart, 15 min” value was determined as 0 % administered dose and the “metabolite in spleen, 15 min” value came out at 0.13 ± 0.08 % administered dose. The “metabolite in kidneys, 15 min” value in data set [2] (after An2-PAPTP i.v., kidneys) is 0.01 % administered dose. For the same compound, the “metabolite in kidneys, 30 min” value in data set [2] (after An2-PAPTP i.v., kidneys, mean ± SEM, N = 4) came to 0.12 ± 0.08 % administered dose. Moreover, in data set [2] (after An2-PAPTP i.v., kidneys, mean ± SEM, N = 6), the “metabolite in kidneys, 60 min” value was determined as 0.02 ± 0.01 % administered dose. Moreover, in data set [2] (setting [10]), the “metabolite in spleen, 60 min” value is listed as 0.08 ± 0.01 % administered dose.

Turning to HN-IGRKKRRQRRRPPQG-OH, in data set [3], the cleaved bond entry was “hydrolysis of the carbamate bond connecting the peptide and PAPTPL”.
